Legend:
Format in all cases: in vivo, human
[1] = tested on: platinum resistant ovarian cancer (PROC); assay: Dose-response and exposure-response (E-R) analysis for ORR in subjects with PROC; details: for ORR (%): PROC
Method: MORAb-202 was administered to subjects (N=58) with platinum resistant ovarian cancer (PROC) over a body weight (BW)-based dose range of 0.3 to 1.2 mg/kg. All doses were administered at Q3W. A dose-response assessment was carried out to calculate a relationship between dose and objective response rate (ORR) over this dose range. Clinical pharmacology assessments were conducted to evaluate the dose relationships between MORAb-202 and objective response rates (ORR) or ILD. The dose-response relationships were calculated using logistic regression analyses. An E-R efficacy (ORR) analysis was conducted with PROC subjects (N=58) across the dose range of 0.3 to 1.2 mg/kg Q3W. […] Exposure (AUC) was the only significant predictor of the probability of an objective response in multivariate analysis (as shown in FIG. 1). Age, weight, non-high grade serous OC (versus high grade serous OC), ECOG-PS (1 vs 0), and expansion (versus dose escalation) were not significant predictors of an objective response (OR). Higher doses above 1.2 mg/kg Q3W would be expected to result in a higher probability of an OR, given linear PK and lack of saturation of OR across the current dose range. Based on the results of the E-R analysis, clinically meaningful efficacy is expected across the dose range of 0.68 to 1.2 mg/kg. However, as described in section 1.2.3, an overlapping AUC dependence to ILD is observed.

[2] = tested on: subjects with PROC and across tumor types (PROC, EC, TNBC, and NSCLC); assay: Exposure-response (E-R) analysis for ILD in subjects with PROC and across all tumor types; details: N=96 in total (48/96); PROC 0.3 to 1.2 mg/kg Q3W and across tumor types 0.9 to 1.2 mg/kg Q3W
Method: An E-R analysis of ILD was conducted with data from subjects with PROC across the dose range of 0.3 to 1.2 mg/kg Q3W as well as subjects across tumor types (PROC, EC, TNBC, and NSCLC) across the dose range of 0.9 to 1.2 mg/kg Q3W (N=96 in total). Forty-eight subjects had ILD identified by expert review for an ILD rate of 50% (48/96) across both subject groups and dose ranges. AUC and age were significant predictors in multivariate analysis with both higher AUC and higher age predicting a higher probability of ILD. Weight, albumin, ECOG-PS (1 vs 0), Study, and tumor type (OC vs other) were not significant predictors. The probability of ILD by AUC was predicted at the median age (60 years) and plotted along with the observed ILD rate for each exposure quartile (as shown in FIG. 2).

[3] = tested on: subjects with ovarian cancer (OC) and endometrial cancer (EC); assay: Preliminary results from Phase 1/2 trial, BSA-based dosing cohorts
From the text: MORAb-202 will be administered as an intravenous (IV) infusion once every 3 weeks (21-day cycle). Treatment will stop upon intolerable toxicity, disease progression, or subject withdrawal for any reason. The Dose-Confirmation part will evaluate the safety and preliminary efficacy of MORAb-202 at selected dose levels in subjects with OC and EC. There will be approximately 30 subjects in the Dose-Confirmation part in 4 study treatment cohorts. If at any time ≥2 Grade ≥3 ILD/pneumonitis (National Cancer Institute Common Terminology Criteria for Adverse Events [NCI CTCAE v5.0]) events are observed, the sponsor will pause enrollment, pending IDMC review. The initial cohort will enroll 6 subjects at 25 mg/m^2 of MORAb-202. The dosing regimen for this study is body surface area (BSA)-based dosing. The dose levels to be used in this portion of the study have been matched to body weight doses of 0.9 mg/kg and 0.68 mg/kg with BSA doses of 33 mg/m^2 and 25 mg/m^2 respectively. The BSA dose equivalents were confirmed using predictions from a MORAb-202 population PK model (described in Example 1). This revised dosing regimen has been implemented in the Dose-Confirmation part of this study due to the potential to reduce the ILD risk in higher body weight subjects whilst using doses within the therapeutic index of MORAb-202. The dose evaluation part of the study was designed with two sequential cohorts at 25 mg/m^2 and 33 mg/m^2. Enrollment has been completed in the two sequential cohorts. A total of 14 subjects were enrolled and treated with MORAb-202 with 7 subjects in each cohort. Further investigation will continue at 25 mg/m^2 Q3W. […] BSA-based dosing decreased the total amount of drug (mg) compared with BW-based estimated total dose in most subjects. Additional testing is planned for every two weeks and for once per week dosing regimens.

[4] = tested on: subjects with PROC, endometrial cancer (EC), triple negative breast cancer (TNBC), and non-small cell lung cancer (NSCLC); assay: Dose-response relationship for ILD across tumor types
Method: MORAb-202 was administered to subjects (N=82) with PROC, endometrial cancer (EC), triple negative breast cancer (TNBC), and non-small cell lung cancer (NSCLC) over a body weight (BW)-based dose range of 0.3 to 1.2 mg/kg. All doses were administered at Q3W. A dose-response assessment was carried out to calculate a relationship between dose and ILD rate over this dose range.
Clinical pharmacology assessments were conducted to evaluate the dose relationships between MORAb-202 and objective response rates (ORR) or ILD. The dose-response relationships were calculated using logistic regression analyses.

[5] = MORAb-202 population pharmacokinetics (PPK) model
Method: Different dosing regimens were simulated to select a dose of MORAb-202 that would minimize ILD rate while maintaining a high ORR. Stochastic simulations were conducted using the MORAb-202 population pharmacokinetics (PPK) model shown in Table 13 to predict AUC and Cmax for different dosing regimens. […] BW and serum albumin were significant covariates on CL (total clearance) and BW on volume of distribution. Five dosing regimens were simulated: 1) flat dose of 63 mg; 2) BW-based dose of 0.9 mg/kg; 3) BW-based dose of 0.9 mg/kg with a maximum total dose cap of 70 mg; 4) adjusted ideal body weight (AIBW)-based dose of 1.0 mg/kg; and 5) BSA-based dose of 33 mg/m^2 (equivalent to BW-based dose of 0.9 mg/kg). All dosing regimens were simulated on a Q3W treatment cycle.

[6] = PROC subjects (N=58), 0.3 to 1.2 mg/kg Q3W
[7] = BW-based dose 0.45 mg/kg Q3W, N = 3
[8] = BW-based dose 1.2 mg/kg Q3W, N = 24
[9] = 25 mg/m^2 Q3W, preliminary, 7 subjects per cohort

MORAb-202
ORR ([1]; PROC subjects (N=58) across the dose range of 0.3 to 1.2 mg/kg Q3W (23/58)): 39.7% | subjects with a CR (complete response) [1, 6]: 2 | subjects with a PR (partial response) [1, 6]: Twenty-one | ORR (%) ([1]; BW-based dose 0.3 mg/kg Q3W, N = 1): 0 (0) % | ORR (%) [1, 7]: 0 (0) % | ORR (%) ([1]; BW-based dose 0.68 mg/kg Q3W, N = 2): 50% | ORR (%) ([1]; BW-based dose 0.9 mg/kg Q3W, N = 28, 0.9 mg/kg): 32.1% | ORR (%) [1, 8]: 54.2% | ILD rate (ILD identified by expert review) [2]: 50% | Mean PK profiles compared with those of a 0.68 mg/kg dose ([3]; 25 mg/m^2, MORAb-202, total antibody, and released eribulin): comparable | anti-tumor activity [3, 9]: initial anti-tumor activity | safety [3, 9]: Acceptable safety | ILD (%) ([4]; BW-based dose 0.3 mg/kg Q3W, N = 3): 0 (0) % | ILD (%) [4, 7]: 0 (0) % | ILD (%) ([4]; BW-based dose 0.68 mg/kg Q3W, N = 6): 16.7% | ILD (%) ([4]; BW-based dose 0.9 mg/kg Q3W, N = 46): 37.0% | ILD (%) [4, 8]: 58.3% | dose proportionality of exposures ([5]; PPK analysis): dose proportional | Inter-Individual Variabilty R CL-V1 ([5]; final PPK model): 0.577 | Q, estimate ([5]; final PPK model): 0.008039 L/h | Residual Additive (SD, ug/mL) ([5]; final PPK model): 0.0992 µg/mL | V1, estimate ([5]; final PPK model): 2.482 L | V2, estimate ([5]; final PPK model): 1.875 L | CL (total clearance), estimate ([5]; final PPK model, 2-compartment, IV infusion): 0.01595 L/h | BW on V1 (exponent), estimate ([5]; final PPK model, covariate): 0.559

— patent US20250249111A1, “ERIBULIN-BASED ANTIBODY-DRUG CONJUGATES AND METHODS OF USE” (priority 2022, published 2025)
